# Laboratory results from PMC10514136, “Peptide-conjugated antimiRs improve myotonic dystrophy type 1 phenotypes by promoting endogenous MBNL1 expression” (Molecular Therapy. Nucleic Acids, 2023).
# Values joined by “and” are separate entries in the source; they are usually repeats but may differ in a detail not shown here. Equal entries are not always repeated.
# Legend:
# HSALR mice = test: Serum biochemistry profile; type: in vivo, mouse
# From the text: Mouse handling and experimental procedures followed the European law regarding laboratory animal care and experimentation (2003/65/C.E.) and were approved by Conselleria de Agricultura, […] (reference no. A1539961490857). We used homozygous transgenic HSA^LR (line 20 b) mice,[90] which were kindly provided by Dr Thornton (Rochester, NY) and were housed and bred in our animal facility. […] The mice were randomly allocated to the different treatments as follows: in each cage, each mouse was ear-marked as it was taken out, and each mouse was then assigned to a different treatment. Animals were injected biweekly intravenously with 150 μL of 1× PBS vehicle (controls; […] Mice were sacrificed 45 days after the first injection and the tissues of interest were frozen in liquid nitrogen for the molecular and histological assays. All the mice used in this study ranged from 5 to 5.5 months of age and all were males. At 45 days post treatment, animals were sacrificed, and blood was collected by cardiac puncture exsanguination with K3-EDTA (Sarstedt, Nümbrecht, Germany). The samples were analyzed by Laboratorios Montoro Botella (Valencia, Spain).
# Clcn1 exon 7a = test: Alternative splicing of Clcn1 exon 7a in muscle by RT-PCR (PSI, splice recovery); type: in vivo, mouse; settings: HSALR mice, individual mice; for Percentage spliced-in (PSI) Clcn1 Gast: 9.2 mg/kg (mean) i.v. x3, day 45, gastrocnemius; for Percentage spliced-in (PSI) Clcn1 Quads: 9.2 mg/kg (mean) i.v. x3, day 45, quadriceps
# Method: (§1) Total RNA from murine gastrocnemius and quadriceps muscle was isolated using the miRNeasy Mini Kit (QIAGEN, Hilden, Germany) according to the manufacturer’s instructions. One microgram of RNA was digested with DNase I (Invitrogen, Carlsbad, CA) and reverse transcribed with SuperScript II (Invitrogen) using random hexanucleotides. For subsequent PCR reactions, 20 ng of cDNA was used with GoTaq polymerase (Promega). Specific primers were used to analyze the alternative splicing of Nfix, Atp2a1, and Clcn1 in mouse samples (both muscles). Gapdh levels established the endogenous reference levels using 0.2 ng of cDNA. PCR products were separated on a 2% agarose gel and quantified using ImageJ software (NIH, Bethesda, MD). PSR index was defined as value%SI minus X¯%DSI , divided by X¯%DSI minus X¯%HSI (SI, splicing inclusion of each sample; DSI, disease splicing inclusion; HSI, healthy splicing inclusion). Overall, PSR indicates the amount in both muscles analyzed. Primer sequences and exons analyzed are available in Cerro-Herreros et al.[20] In the case of off-targets, interleukins, and muscle regeneration marker Mstn-1, primers sequences are available in Table S5. We used 1 ng of mouse tissue cDNA as a template for multiplex qPCR using the QuantiFast Probe PCR Kit reagent. Commercial TaqMan probes (QIAGEN) were used for mouse (Mbnl1 and Mbnl2; FAM-labeled probes) and reference (GAPDH; MAX-labeled probe) genes. Results were normalized to Gapdh endogenous gene expression.
# (§2) We used homozygous transgenic HSA^LR (line 20 b) mice,[90] which were kindly provided by Dr Thornton (Rochester, NY) and were housed and bred in our animal facility. Experimental groups were FVB as healthy control and HSA^LR treated with a scrambled ON (SC) and PBS as negative controls, and HSA^LR mice treated with all six experimental CPP-PMOs. The mice were randomly allocated to the different treatments as follows: in each cage, each mouse was ear-marked as it was taken out, and each mouse was then assigned to a different treatment. […] Mice were sacrificed 45 days after the first injection and the tissues of interest were frozen in liquid nitrogen for the molecular and histological assays. All the mice used in this study ranged from 5 to 5.5 months of age and all were males.
# Nfix exon 7 = test: Alternative splicing of Nfix exon 7 in muscle by RT-PCR (PSI, splice recovery); type: in vivo, mouse; settings: HSALR mice, individual mice; for Percentage spliced-in (PSI) Nfix Gast: 9.2 mg/kg (mean) i.v. x3, day 45, gastrocnemius; for Percentage spliced-in (PSI) Nfix Quads: 9.2 mg/kg (mean) i.v. x3, day 45, quadriceps
# Method: as §1, §2
# [1] = tested on: MBNL1 protein levels in DM1 cells; type: cell-based, human; settings: for Tindex (therapeutic index): Tindex = TC50 x Emax / EC50; for EC50: median effective concentration for MBNL1 increase, DM1 myotubes, lipofection (X-tremeGENE HP), medium replaced after 4 h, cells collected day 4, each concentration in triplicate; for MBNL1 fold change: transfection, 1,000 nM, vs untreated DM1 cells
# Method: Immortalized MyoD-inducible (doxycycline) DM1 and control fibroblasts were kindly provided by Dr Furling (Institute of Myology, Paris, France).[38] For the activity assay, cells were seeded in 6-well plates at a density of 8 × 10^4 cells/well and grown in DMEM with 4.5 g/L glucose, 1% P/S, and 10% FBS (Sigma, St. Louis, MO). […] In all cases, the cells were grown at 37°C in a humidified atmosphere containing 5% CO2. Transdifferentiation was induced at day 0, and transfection was performed by lipofection with X-tremeGENE HP (Roche, Basel, Switzerland) 24 h later, with antimiRs and test compounds in the cell medium at different concentrations (from 0.4 nM to 5 μM). The medium was replaced with fresh differentiation medium 4 h afterward. In the gymnosis assay, test compounds were added to the culture medium only at the corresponding EC50 concentration. Cells were collected on day 4 of differentiation and were processed for protein extraction.
# For total protein extraction, human muscle cells were sonicated while mouse muscles (gastrocnemius and quadriceps) were homogenized in Pierce RIPA buffer (Thermo Scientific, Waltham, MA) supplemented with protease and phosphatase inhibitor cocktails (Roche Applied Science, Penzberg, Germany). Quantification of total protein was performed with a Pierce BCA protein assay kit (Thermo Scientific) using bovine serum albumin as standard.
# A 96-well plate QDB assay was used[87] to determine MBNL1 protein levels in all replicates and concentrations of each ON tested. This technique allows for high-throughput screening of low protein concentration samples over conventional western blot (WB) (Figure S9).[88] Cell samples (1 μg/well) and mice samples (2 μg/well) were prepared with 4× loading buffer, denatured (100°C for 5 min) and loaded in QDB plates (Quanticision Diagnostics, Research Triangle Park, NC). For the quantification of in vitro samples, the QDB was performed exactly as described in Moreno et al.[87] […] For Mbnl1 quantification in mouse muscle tissues, we implemented the following modifications: each sample was loaded in quadruplicate on three different plates. One was used to detect Mbnl1 with a mouse MB1a(4A8) antibody (DSHB, Iowa City, IA) using a 1:200 dilution. A second plate was used to quantify tubulin (endogenous normalization control) with a mouse 12G10 antibody (DSHB) using a 1:1,000 dilution. A third plate was used to quantify IgG signal (negative control to subtract background) using an anti-mouse-IgG secondary antibody (Sigma-Aldrich) at 1:3,500 dilution. […] All primary antibodies were detected using horseradish peroxidase-conjugated anti-mouse-IgG secondary antibody (1:5,000 for the anti-mouse plate, 1:2,000 for cell plates, and 1:3,500 for mouse plates [Sigma-Aldrich, MO]). Immunoreactive bands were detected using Pierce ECL Western reagent (Thermo Scientific), and luminescence levels were determined using an Infinite M200 PRO plate reader (Tecan). […] WB assay was performed as described previously.[20]
# After obtaining the TC50, EC50, and Emax in vitro, we defined a Tindex as follows: Tindex=TC50×Emax/EC50
# [2] = HSALR mice, 9.2 mg/kg (mean) i.v. x3, day 45, serum, mean ± sd, n = 5
Substance,"ALT (HSALR mice; mouse, in vivo, iv, 9.2 mg/kg)","Alkaline Phosphatase (HSALR mice; mouse, in vivo, iv, 9.2 mg/kg)","Amylase (HSALR mice; mouse, in vivo, iv, 9.2 mg/kg)","Bile Acids (HSALR mice; mouse, in vivo, iv, 9.2 mg/kg)","Bilirubin (HSALR mice; mouse, in vivo, iv, 9.2 mg/kg)","Creatinine (HSALR mice; mouse, in vivo, iv, 9.2 mg/kg)","Lipase (HSALR mice; mouse, in vivo, iv, 9.2 mg/kg)","Urea (HSALR mice; mouse, in vivo, iv, 9.2 mg/kg)",Percentage spliced-in (PSI) Clcn1 Gast (Clcn1 exon 7a),Percentage spliced-in (PSI) Clcn1 Quads (Clcn1 exon 7a),Percentage spliced-in (PSI) Nfix Gast (Nfix exon 7),Percentage spliced-in (PSI) Nfix Quads (Nfix exon 7),Tindex (therapeutic index) [1],EC50 [1],"AST (HSALR mice; mouse, in vivo, iv, 9.2 mg/kg)","C.P.K. (HSALR mice; mouse, in vivo, iv, 9.2 mg/kg)","Glucose (HSALR mice; mouse, in vivo, iv, 9.2 mg/kg)","L.D.H. (HSALR mice; mouse, in vivo, iv, 9.2 mg/kg)","Total cholesterol (HSALR mice; mouse, in vivo, iv, 9.2 mg/kg)","Triglycerides (HSALR mice; mouse, in vivo, iv, 9.2 mg/kg)",other results
"9b2-23b (antisense GGUAAUCCCUGGCAAUGUGAU; all phosphorodiamidate morpholino (PMO), T or U not given here; Pip9b2 peptide conjugated)","47 ± 6,708 U/L","61 ± 4,301 U/L","2754,4 ± 540,954 U/L","9 ± 11,747 µmol/L","0,102 ± 0,029 mg/dL","0,26 ± 0,054 mg/dL","36,60 ± 8,264 U/L","53 ± 2,345 mg/dL",26.85% and 32.69% and 33.28% and 26.86% and 11.37%,0.61%,55.08% and 63.11% and 66.38% and 63.52% and 47.66%,15.30% and 54.78% and 4.40% and 48.44% and 23.44%,25.19,16 nM,,,,,,,"urea values vs HSALR group treated with PBS (HSALR mice; mouse, in vivo, iv, 9.2 mg/kg): statistically significant increase in the urea values; ΔTindex ([1]; fold change in Tindex relative to the control antagomiR against the same miRNA): 0.34 fold change"
"6aKC-218 (antisense ACAUGGUUAGAUCAAGCACAA; all phosphorodiamidate morpholino (PMO), T or U not given here; Pip6aKC peptide conjugated)","60,20 ± 16,208 U/L","58 ± 4,123 U/L","2999,4 ± 120,286 U/L","2,38 ± 3,406 µmol/L","0,096 ± 0,03 mg/dL","0,20 ± 0 mg/dL",,,28.37% and 38.26% and 18.26% and 24.01% and 28.56%,33.68% and 24.84% and 25.74% and 41.25% and 27.67%,68.36% and 70.85% and 73.58% and 51.68% and 74.79%,52.44% and 62.29% and 52.77% and 89.96% and 66.72%,22.78,138 nM,"138,4 ± 57,665 U/L","818 ± 604,389 U/L","107,2 ± 31,292 mg/dL","2137,60 ± 340,071 U/L","232 ± 12,124 mg/dL","273,4 ± 51,335 mg/dL",MBNL1 fold change [1]: ~1.5 fold
"TCTTACCTCAGTTACAATTTA-Pip9b2 [Scramble, reference compound]",,,,,,,,,12.37% and 14.67% and 42.81% and 26.86% and 36.37%,28.91% and 16.71% and 28.33% and 34.05% and 38.65%,62.98% and 52.74% and 55.70% and 81.00% and 76.46%,60.30% and 80.52% and 66.59% and 72.38% and 72.49%,,890 nM,,,,,,,"ALT (HSALR mice; [2]): 47,6 ± 11,327 U/L; AST (HSALR mice; [2]): 129,60 ± 33,687 U/L; Alkaline Phosphatase (HSALR mice; [2]): 61 ± 6,557 U/L; Amylase (HSALR mice; [2]): 3234,2 ± 476,489 U/L; Bile Acids (HSALR mice; [2]): 3,38 ± 5,188 µmol/L; Bilirubin (HSALR mice; [2]): 0,118 ± 0,026 mg/dL; C.P.K. (HSALR mice; [2]): 763 ± 244,663 U/L; Creatinine (HSALR mice; [2]): 0,20 ± 0 mg/dL; Glucose (HSALR mice; [2]): 113,60 ± 35,352 mg/dL; L.D.H. (HSALR mice; [2]): 2438,8 ± 183,91 U/L; Total cholesterol (HSALR mice; [2]): 224,40 ± 11,216 mg/dL; Triglycerides (HSALR mice; [2]): 259,8 ± 56,287 mg/dL; Emax (maximum fold change) ([1]; highest MBNL1 protein level vs untreated DM1 cells over the concentrations tested, transfection): 1.30 fold change; ability to enhance MBNL1 expression ([1]; transfection, all concentrations tested (10 nM to 5 μM)): no ability to enhance MBNL1 expression at any concentration tested"
"6aKC-23b (antisense GGUAAUCCCUGGCAAUGUGAU; all phosphorodiamidate morpholino (PMO), T or U not given here; Pip6aKC peptide conjugated)","57,8 ± 13,349 U/L","58,40 ± 6,693 U/L","4232,6 ± 2590,822 U/L","0,675 ± 0,754 µmol/L","0,11 ± 0,083 mg/dL","0,20 ± 0 mg/dL",,,15.22% and 18.35% and 23.17% and 29.03% and 31.54%,24.44% and 30.63% and 35.11% and 37.69% and 28.33%,63.59% and 47.55% and 61.79% and 62.43% and 69.22%,56.32% and 62.29% and 64.55% and 58.42% and 53.11%,7.78,453 nM,"143,60 ± 41,464 U/L","831,8 ± 357,821 U/L","121,2 ± 27,607 mg/dL","2574 ± 453,119 U/L","227,40 ± 11,014 mg/dL","235,4 ± 40,209 mg/dL",MBNL1 fold change [1]: ~2 fold
"9b2-218 (antisense ACAUGGUUAGAUCAAGCACAA; all phosphorodiamidate morpholino (PMO), T or U not given here; Pip9b2 peptide conjugated)","49 ± 19,079 U/L","61,40 ± 6,730 U/L","2773,2 ± 363,954 U/L","74,80 ± 159,433 µmol/L","0,108 ± 0,044 mg/dL","0,32 ± 0,192 mg/dL","63,8 ± 75,793 U/L","44,40 ± 6,985 mg/dL",5.28% and 30.49% and 30.67% and 18.06% and 25.23%,4.09%,58.31% and 29.97% and 59.09% and 66.06% and 69.09%,30.95% and 10.51% and 43.26% and 15.39% and 35.59%,2.52,64.7 nM,,,,,,,
